Our source for the Fold diff values is US20220332804A1 (CSL INNOVATION, published 2022).

Common to all, as to assay: SPR, KD relative to WT C2;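 also: biacore SPR at 37 °C, anti-C2 mAbs captured via immobilised goat anti-human IgG, C2 alanine or serine surface mutants as analytes, 1:1 model fitted, double-referenced sensograms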
One test deals with T1, human C2 E556A (human, UniProt P06681 21-752).
T1 sequence: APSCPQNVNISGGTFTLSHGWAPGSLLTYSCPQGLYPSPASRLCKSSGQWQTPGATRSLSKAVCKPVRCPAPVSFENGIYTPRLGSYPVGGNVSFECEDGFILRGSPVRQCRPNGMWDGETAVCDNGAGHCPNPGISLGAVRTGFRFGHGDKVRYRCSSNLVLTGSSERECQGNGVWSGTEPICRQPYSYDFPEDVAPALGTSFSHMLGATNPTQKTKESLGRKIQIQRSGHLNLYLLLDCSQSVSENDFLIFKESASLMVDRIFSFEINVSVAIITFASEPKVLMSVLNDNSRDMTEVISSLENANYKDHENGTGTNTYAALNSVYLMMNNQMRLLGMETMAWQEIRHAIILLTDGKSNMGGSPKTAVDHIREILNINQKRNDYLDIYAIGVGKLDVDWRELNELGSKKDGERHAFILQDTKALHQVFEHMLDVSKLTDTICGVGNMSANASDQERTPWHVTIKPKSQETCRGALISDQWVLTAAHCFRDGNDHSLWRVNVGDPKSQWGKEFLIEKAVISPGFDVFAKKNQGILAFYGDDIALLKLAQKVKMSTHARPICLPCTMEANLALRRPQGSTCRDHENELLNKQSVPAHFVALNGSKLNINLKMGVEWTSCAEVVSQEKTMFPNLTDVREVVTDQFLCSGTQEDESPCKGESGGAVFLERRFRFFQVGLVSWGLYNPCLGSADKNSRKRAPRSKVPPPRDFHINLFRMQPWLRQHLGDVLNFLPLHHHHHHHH

In the next test the target is T2, human C2 R434A (human, UniProt P06681 21-752).
T2 sequence: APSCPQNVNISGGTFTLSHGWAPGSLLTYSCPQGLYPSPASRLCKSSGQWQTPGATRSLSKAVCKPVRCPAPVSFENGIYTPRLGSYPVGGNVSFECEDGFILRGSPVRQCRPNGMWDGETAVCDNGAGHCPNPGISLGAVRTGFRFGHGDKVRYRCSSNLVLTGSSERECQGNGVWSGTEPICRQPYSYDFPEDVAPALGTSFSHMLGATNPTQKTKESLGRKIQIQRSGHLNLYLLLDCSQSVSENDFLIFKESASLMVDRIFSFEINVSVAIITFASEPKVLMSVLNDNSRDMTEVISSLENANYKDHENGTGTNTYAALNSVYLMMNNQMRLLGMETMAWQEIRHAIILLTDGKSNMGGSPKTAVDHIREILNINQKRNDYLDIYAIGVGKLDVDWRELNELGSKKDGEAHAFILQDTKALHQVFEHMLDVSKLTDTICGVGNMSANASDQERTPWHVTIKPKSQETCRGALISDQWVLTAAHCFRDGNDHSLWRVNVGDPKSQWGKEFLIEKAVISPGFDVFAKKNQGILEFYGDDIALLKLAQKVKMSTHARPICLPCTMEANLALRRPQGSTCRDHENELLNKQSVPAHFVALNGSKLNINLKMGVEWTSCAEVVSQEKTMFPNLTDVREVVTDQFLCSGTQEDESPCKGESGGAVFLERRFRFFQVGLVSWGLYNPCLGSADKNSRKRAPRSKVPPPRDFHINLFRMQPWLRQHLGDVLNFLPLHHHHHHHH

The next test concerns the target T3, human C2 T647A (human, UniProt P06681 21-752).
T3 sequence: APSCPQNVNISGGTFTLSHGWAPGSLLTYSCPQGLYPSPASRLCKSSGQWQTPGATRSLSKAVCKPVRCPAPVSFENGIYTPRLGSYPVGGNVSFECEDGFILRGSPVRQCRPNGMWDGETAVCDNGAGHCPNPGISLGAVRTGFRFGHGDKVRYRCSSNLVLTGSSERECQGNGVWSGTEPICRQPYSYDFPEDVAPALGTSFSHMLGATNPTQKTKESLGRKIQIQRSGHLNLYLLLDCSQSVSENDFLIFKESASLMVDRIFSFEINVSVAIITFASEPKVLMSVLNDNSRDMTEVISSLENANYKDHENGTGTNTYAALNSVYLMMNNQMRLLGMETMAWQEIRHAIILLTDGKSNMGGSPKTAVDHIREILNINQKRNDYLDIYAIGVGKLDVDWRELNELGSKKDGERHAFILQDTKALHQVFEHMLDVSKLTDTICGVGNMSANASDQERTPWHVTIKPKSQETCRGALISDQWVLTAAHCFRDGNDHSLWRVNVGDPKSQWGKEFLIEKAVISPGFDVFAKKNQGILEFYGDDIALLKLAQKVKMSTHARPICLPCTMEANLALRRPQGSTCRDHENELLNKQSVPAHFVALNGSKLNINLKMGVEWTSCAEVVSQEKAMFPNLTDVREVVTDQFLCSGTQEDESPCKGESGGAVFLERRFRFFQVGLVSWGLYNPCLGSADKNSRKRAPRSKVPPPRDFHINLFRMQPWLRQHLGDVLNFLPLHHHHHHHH

Another test addresses T4, human C2 G427A (human, UniProt P06681 21-752).
T4 sequence: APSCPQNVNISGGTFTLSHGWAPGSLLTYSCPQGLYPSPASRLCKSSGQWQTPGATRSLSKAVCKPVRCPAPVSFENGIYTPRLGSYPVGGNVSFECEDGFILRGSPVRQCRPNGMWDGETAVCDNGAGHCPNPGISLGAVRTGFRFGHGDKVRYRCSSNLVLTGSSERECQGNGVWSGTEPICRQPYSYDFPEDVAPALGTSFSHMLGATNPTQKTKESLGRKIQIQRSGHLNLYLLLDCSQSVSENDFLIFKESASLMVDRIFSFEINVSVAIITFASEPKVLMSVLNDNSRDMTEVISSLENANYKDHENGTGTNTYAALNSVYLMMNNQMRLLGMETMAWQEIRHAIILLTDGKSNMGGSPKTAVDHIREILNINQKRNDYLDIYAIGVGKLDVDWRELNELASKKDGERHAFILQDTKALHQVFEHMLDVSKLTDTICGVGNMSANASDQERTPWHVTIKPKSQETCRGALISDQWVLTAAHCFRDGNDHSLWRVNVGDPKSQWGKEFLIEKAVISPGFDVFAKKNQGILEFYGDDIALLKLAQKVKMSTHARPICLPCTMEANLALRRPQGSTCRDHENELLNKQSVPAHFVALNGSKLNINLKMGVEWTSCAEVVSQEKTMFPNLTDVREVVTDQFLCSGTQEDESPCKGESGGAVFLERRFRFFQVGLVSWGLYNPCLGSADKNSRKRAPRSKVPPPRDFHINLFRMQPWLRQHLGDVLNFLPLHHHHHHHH

B1: RF16-226 (antibody, human IgG4 S228P, lambda)
heavy: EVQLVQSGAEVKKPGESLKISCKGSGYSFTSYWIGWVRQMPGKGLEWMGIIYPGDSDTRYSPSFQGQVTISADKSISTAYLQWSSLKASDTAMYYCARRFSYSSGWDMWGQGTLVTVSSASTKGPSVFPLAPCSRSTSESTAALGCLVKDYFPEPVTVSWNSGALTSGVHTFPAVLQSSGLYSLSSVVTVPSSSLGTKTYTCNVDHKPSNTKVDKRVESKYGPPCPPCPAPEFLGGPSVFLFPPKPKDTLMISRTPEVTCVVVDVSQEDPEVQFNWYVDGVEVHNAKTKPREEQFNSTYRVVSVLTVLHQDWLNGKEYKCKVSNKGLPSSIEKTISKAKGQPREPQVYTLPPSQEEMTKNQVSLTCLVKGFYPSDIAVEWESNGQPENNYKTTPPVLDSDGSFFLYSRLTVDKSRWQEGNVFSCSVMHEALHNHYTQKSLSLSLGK
light: SYELTQPPSVSVSPGQTARITCSGDALTSKYVAWYQQKSGLAPLLVIYEDTRRPSGIPAKFSGSSSGSVATLTISGAHGDDEADYYCYSTDASGHQRVFGGGTKLTVLSQPKAAPSVTLFPPSSEELQANKATLVCLISDFYPGAVTVAWKADGSPVKAGVETTKPSKQSNNKYAASSYLSLTPEQWKSHRSYSCQVTHEGSTVEKTVAPTECS
notes: pH-dependent anti-C2 antibody from a phage display library; also called WT
On to B1, for which the Fold diff with human C2 E556A was found to be 1 fold; with human C2 R434A, 14 fold; in the test with human C2 T647A, 15 fold; with human C2 G427A it was 0 fold.
